What all share (assay): ELISA on coated antigen
Background: In an ELISA, binding on a coated surface is turned into a signal by an enzyme label.

The target of one test is T1, human serum albumin (human, UniProt P02768 25-609).
T1 construct: Irrelevant antigen control, produced in P. pastoris; also called HSA

A further test concerns the target T2, alpha1-ECD of human AChR (human, UniProt P02708 21-230, limits assumed).
T2 construct: extracellular domain; Irrelevant antigen control; also called α1-ECD; α1-AChR

For a further test, the target named is T3, bovine serum albumin (bovine, UniProt P02769 25-607).
T3 construct: Irrelevant antigen control; also called BSA
T3 sequence (P02769 25-607 limits assumed): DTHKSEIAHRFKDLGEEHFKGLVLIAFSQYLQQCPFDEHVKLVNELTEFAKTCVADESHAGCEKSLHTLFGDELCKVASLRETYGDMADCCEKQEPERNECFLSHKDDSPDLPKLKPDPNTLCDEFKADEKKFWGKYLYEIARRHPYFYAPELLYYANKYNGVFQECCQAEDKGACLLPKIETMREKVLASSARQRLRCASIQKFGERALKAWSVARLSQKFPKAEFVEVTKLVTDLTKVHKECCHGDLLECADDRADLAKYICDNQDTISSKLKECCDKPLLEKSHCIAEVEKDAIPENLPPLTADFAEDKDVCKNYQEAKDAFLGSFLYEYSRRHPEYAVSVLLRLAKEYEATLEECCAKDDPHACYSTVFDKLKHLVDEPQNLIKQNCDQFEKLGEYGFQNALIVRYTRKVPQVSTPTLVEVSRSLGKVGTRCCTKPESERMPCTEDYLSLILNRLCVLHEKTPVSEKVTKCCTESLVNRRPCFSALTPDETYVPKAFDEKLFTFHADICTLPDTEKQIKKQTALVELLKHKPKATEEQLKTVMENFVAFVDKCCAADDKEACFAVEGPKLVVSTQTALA

T2 sequence (P02708 21-230 limits assumed): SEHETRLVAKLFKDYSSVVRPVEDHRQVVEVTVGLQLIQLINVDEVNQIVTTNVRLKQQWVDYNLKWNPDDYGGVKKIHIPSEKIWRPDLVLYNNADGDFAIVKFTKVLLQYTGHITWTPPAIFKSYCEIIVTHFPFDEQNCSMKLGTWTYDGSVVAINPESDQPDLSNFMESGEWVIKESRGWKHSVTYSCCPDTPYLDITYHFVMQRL

B1: Fab63 (Fab, V domains shown)
VH: EVQLLEWGPGLVKPSGTLSLTCAVSGGSIRDSNWWGWVRQPPGKGLEWIGEIYHSGTTNYNPSLKSRVTISVDKSKNQFSLNLSSVTAADTAVYYCAREDCSYGSCYFDYWGQGTLVTVSS
VL: ELTLTQSPSSLSASLGDRVTIRCRASQSISAALNWYQQKPGKAPKLLIHDVSTLQSGVPARFSGGGSETDFTLTISSLQPEDFATYYCQQSYRVPLTFGGGTRLEIK
notes: Fully human soluble Fab made in E. coli from pComb3H; Heavy chain is an Fd of the gamma1 isotype (VH-CH1), light chain is kappa (VL of the K subgroup, with Ckappa); also called human Fab 63; clone 63
Take B1: the binding result with human serum albumin, in the test with alpha1-ECD of human AChR and in the test with bovine serum albumin was “no binding (tested: antigen coated at 10 µg/ml)” throughout.
